Three molecules from US20120114665A1 (Regeneron, published 2012) can be followed below.

The target in experiment [1] is T1, human RANKL (receptor activator of NF-κB ligand) (human, UniProt O14788 140-317, limits assumed).
T1 sequence: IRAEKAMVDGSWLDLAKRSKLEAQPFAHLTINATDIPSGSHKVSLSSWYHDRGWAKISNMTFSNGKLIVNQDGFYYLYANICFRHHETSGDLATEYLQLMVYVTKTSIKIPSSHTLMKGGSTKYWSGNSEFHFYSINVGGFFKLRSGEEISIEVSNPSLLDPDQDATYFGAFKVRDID
As to the kind of experiment: cell-based or functional assay.

Experiment [2] has as its target T2, hRANKL captured on an anti-penta-his antibody surface (human, UniProt O14788 136-317).
T2 construct: also called captured hRANKL surface; not shown: his tag implied by capture on anti-penta-his
T2 sequence: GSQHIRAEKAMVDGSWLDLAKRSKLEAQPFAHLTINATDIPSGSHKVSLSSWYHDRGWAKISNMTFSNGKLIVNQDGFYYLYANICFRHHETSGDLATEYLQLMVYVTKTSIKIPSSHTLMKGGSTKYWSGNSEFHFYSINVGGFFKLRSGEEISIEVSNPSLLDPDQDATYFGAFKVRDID
As to the kind of experiment: SPR (BIACORE), hRANKL captured on anti-penta-his, antibody 25-100 nM injected, 37°C. On the technique in general: SPR reads the build-up and loss of mass on a sensor chip optically.

In experiment [3] the target is T3, penta-his-tagged monkey (Macaca fascicularis) RANKL (Macaca fascicularis, UniProt O14788 125-317 (human entry)).
T3 construct: also called his-mfRANKL; mfRANKL; not shown: penta-his tag
T3 chain: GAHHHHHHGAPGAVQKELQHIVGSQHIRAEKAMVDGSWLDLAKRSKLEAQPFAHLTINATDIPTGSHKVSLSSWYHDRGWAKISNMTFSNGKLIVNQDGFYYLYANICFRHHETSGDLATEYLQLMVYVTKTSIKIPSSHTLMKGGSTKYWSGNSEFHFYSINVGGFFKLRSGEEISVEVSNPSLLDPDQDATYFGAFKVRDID
As to the kind of experiment: competition ELISA: 150 pM his-mfRANKL pre-mixed with antibody, free RANKL detected on hRANK-hFc plate. The method, then:
(§1) Briefly, hRANK-hFc protein was coated on a 96-well plate in PBS buffer overnight at 4° C. at 2 μg/ml, and nonspecific binding was blocked with BSA, to form a hRANK-hFc surface.
In general terms: An ELISA detects its analyte on a solid surface through an enzyme-linked reagent.

Experiment [4] concerns the target T1, human RANKL (receptor activator of …). As to the kind of experiment: cell-based or functional assay. This is another data set of the same source.
Experiment [5] has the same target. As to the kind of experiment: SPR (BIACORE), purified antibody, 37°C.
The target in experiment [6] is T3, penta-his-tagged monkey (Macaca …). The experiment can be described thus: competition ELISA: 150 pM his-mfRANKL pre-mixed with antibody, free RANKL detected on hRANK-hFc plate. As for the experimental part: as §1
In experiment [7] the target is T4, human trRANKL-his (R&D) (human, UniProt O14788 136-317, limits assumed).
T4 construct: Bought (R&D); also called captured RANKL; not shown: his tag
T4 sequence: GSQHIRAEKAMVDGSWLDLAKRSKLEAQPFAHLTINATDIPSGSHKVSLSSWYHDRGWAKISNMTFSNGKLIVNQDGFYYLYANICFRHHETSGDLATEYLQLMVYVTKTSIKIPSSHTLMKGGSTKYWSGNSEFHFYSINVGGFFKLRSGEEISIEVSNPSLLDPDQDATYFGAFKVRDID
The experiment can be described thus: SPR, trRANKL-his captured on anti-his, antibody 12.5-50 nM injected, 37°C. The source says:
(§2) Briefly, human trRANKL-his (R&D) was first captured over an anti-his surface. […] The antigen and antibody binding and dissociation were monitored for 1 hr. KD is expressed in pM, T_{1/2} in hrs.

Experiment [8] deals with T2, hRANKL captured on an anti-penta-his …. The experiment can be described thus: SPR (BIACORE), hRANKL captured on anti-penta-his, antibody 25-100 nM injected, 25°C.
Experiment [9] deals with T5, penta-his-tagged hRANKL (human).
T5 construct: also called his-hRANKL; not shown: penta-his tag
T5 chain: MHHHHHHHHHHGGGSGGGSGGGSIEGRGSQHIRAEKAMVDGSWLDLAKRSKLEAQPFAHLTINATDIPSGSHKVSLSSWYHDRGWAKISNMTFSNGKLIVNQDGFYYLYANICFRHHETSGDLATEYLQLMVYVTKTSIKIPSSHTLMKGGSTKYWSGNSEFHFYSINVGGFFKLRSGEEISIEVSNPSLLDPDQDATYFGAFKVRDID
As to the kind of experiment: competition ELISA: 150 pM his-hRANKL pre-mixed with antibody, free RANKL detected on hRANK-hFc plate. The method, then: as §1

For experiment [10], the target named is T5, penta-his-tagged hRANKL. The experiment is described as above. As for the experimental part:
as §1

Experiment [11] has as its target T4, human trRANKL-his (R&D). As to the kind of experiment: SPR, trRANKL-his captured on anti-his, antibody 12.5-50 nM injected, 25°C.
Description: as §2

For experiment [12], the target named is T1, human RANKL (receptor activator of …). The experiment can be described thus: SPR (BIACORE), purified antibody, 25°C.

Like-named read-outs stand apart in the source and are kept apart here.

B1: H4H008G (antibody, V domains shown)
VH: QVQLVESGGGVVQPGRSLRLSCAASGFTFSGFGMHWVRQAPGKGLEWVAVISYDGRNKYYADSVKGRFTISRDNSKNTLYLQMNSLRAEDTAVYYCAKSLSGTYWGYGMDVWGQGTTVTVS
VL: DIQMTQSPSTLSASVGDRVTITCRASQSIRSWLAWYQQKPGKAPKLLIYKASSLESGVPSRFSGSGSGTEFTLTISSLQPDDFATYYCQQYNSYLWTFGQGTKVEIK
notes: Purified antibody from clone 2G10
By Kd is commonly meant the constant that tells how readily two partners part at equilibrium. As usually defined, the IC50 is the midpoint of a concentration-inhibition curve. Turning to B1, the results for the “IC50, hRANKL-inducible luciferase activity in HK293/RANK/NFκB-luc-eGFP cells” value (from here on “IC50 … in HK293/RANK/NFκB-luc-eGFP cells”) in experiment [1] and in experiment [4] were 10.8 pM and 20 pM, respectively. The Kd was found to be 0.0399 nM in experiment [2]; 0.163 nM in [5]; 0.0395 nM with human trRANKL-his (R&D) [7]; 0.0119 nM in [8]; 0.0119 nM in the experiment with human trRANKL-his (R&D) [11]; 7 pM in experiment [12]. The T1/2 in experiment [2] was 1 h; with human trRANKL-his (R&D) [7], 60 min; in experiment [8], 6 h; with human trRANKL-his (R&D) [11], 6 h. In addition, the IC50 in [3] amounted to 0.29 nM; in [6], 0.16 nM; with penta-his-tagged hRANKL [9], 0.09 nM; in the experiment with penta-his-tagged hRANKL [10], 0.02 nM.

B2: H4H010P2 (antibody, V domains shown)
VH: QVQLVQSGGGVVQPGRSLRLSCAASGFTFSGYGMHWVRQAPGKGLDWVTVISYDGSNKHYADSVKGRFTISRDNSKNTLYLQMSSLGPEDTAVYYCAKSLSGTYWGYGMDVWGQGTTVTVSS
VL: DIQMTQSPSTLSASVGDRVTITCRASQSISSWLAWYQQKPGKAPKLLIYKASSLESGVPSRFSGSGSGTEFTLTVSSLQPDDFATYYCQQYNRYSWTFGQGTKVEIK
On to B2, for which, in experiment [1], the “IC50 … in HK293/RANK/NFκB-luc-eGFP cells” value is 18.7 pM. Also, the IC50 in [3] is 0.353 nM; in the experiment with penta-his-tagged hRANKL [9] it was 0.0519 nM. Moreover, the Kd with human trRANKL-his (R&D) [7] was 0.848 nM; with human trRANKL-his (R&D) [11], 0.134 nM. Besides, the T1/2 in the experiment with human trRANKL-his (R&D) [7] came out at 9 min; in the experiment with human trRANKL-his (R&D) [11], 1 h.

B3: H4H008P2 (antibody, V domains shown)
VH: EVQLLESGGGLLQPGGSLRLSCAASGFTFSGFGMSWVRQAPGRGLEWVSVISYDGRNKYYADSVKGRFTSSRDNSKNTLYLQMNSLRAEDTAVYYCAKSLSGTYWGYGMDVWGRGTLVTVSS
VL: EIVLTQSPATLSLSPGERATLSCRASQSIRSWLAWYQQKPGQAPRLLIYKASNRATGIPARFSGSGSGTDFTLTISSLEPEDFGVYYCQQYNSYLWTFGGGTKVEIKR
For the molecule B3, the “IC50 … in HK293/RANK/NFκB-luc-eGFP cells” value in experiment [1] turned out to be 15 pM. Also, the IC50 worked out at 1.8 nM in experiment [3] and 0.0569 nM in the experiment with penta-his-tagged hRANKL [9]. Moreover, the Kd in the experiment with human trRANKL-his (R&D) [7] turned out to be 0.245 nM; with human trRANKL-his (R&D) [11] it was 0.0254 nM. Moreover, the T1/2 in the experiment with human trRANKL-his (R&D) [7] stood at 12 min; with human trRANKL-his (R&D) [11], 2 h.
